Sequences and labels used below:
B1: Hairpin Ribozyme (parent)
chain: GUCCUCUUUCACGUGCGCGUGAAAGAGAGAAGUGAACCAGAGAAACACACGUUGUGGUAUAUUACCUGGUA

In this series the parent is B1. The series can be described thus: self-cleavage, relative activity (ratio to wild type); higher = more cleavage; co-transcriptional.
G29U U53G: the self-cleavage worked out at 0.102. Turning to A28G U53A, the self-cleavage came to 1.01. For A28G U53G, the self-cleavage came to 1.13. Regarding A28G U53C, the self-cleavage was 1.06. As to A30G A31U, the self-cleavage was 0.125. With A30G A31C the figure was 0.111; with A30C U33A, 0.0224. With G29A C38A the figure was 0.108; with A30C A35C, 0.181; with A30G A49U, 0.0894. In the case of A30G A49G, the self-cleavage was 0.0332. On to A30G A49C, for which the self-cleavage was determined as 0.0806.

On to G29U C66U, for which the self-cleavage was found to be 0.106. For A28U U53G, the self-cleavage worked out at 0.432.

For G29U G57U, the self-cleavage is 0.149. On to G29U G57C, for which the self-cleavage was 0.108.

With G29A G34U, the self-cleavage was determined as 0.131. Next, A30G A47G: 0.0575. With A30G A47C the figure was 0.152; with A28U A59G, 0.243. Next, G29A A31C: 0.129. For the variant A30G U52C, the self-cleavage came to 0.116. For the variant A30G U52A, the self-cleavage is 0.112. With G29C U52C, the self-cleavage came out at 0.163. With A30U G54C the figure was 0.0714; with A30U C46G, 0.252; with A30U C46A, 0.128. With A28G C38U the figure was 0.547. With A28G C38G the figure was 0.169.

As to A28G C38A, the self-cleavage was determined as 0.168. With G29U A35U the figure was 0.117; with A30U G40U, 0.129. A28U A30U: the self-cleavage worked out at 0.136.

For the variant A28G U70A, the self-cleavage was found to be 1.05. In the case of A30G G40U, the self-cleavage stood at 0.0805. A30U A64G: the self-cleavage was 0.106. Consider A30U A64C, for which the self-cleavage stood at 0.174. On to A28G G51C, for which the self-cleavage came to 1.08.

Consider G29A U70C, for which the self-cleavage came out at 0.171. Next, G29A U70G: 0.182; G29A U70A: 0.0755; G29U C38A: 0.179. For the variant G29U C38G, the self-cleavage stood at 0.186. With G29U C65A the figure was 0.139; with A30U U55C, 0.179; with A28G U60C, 0.795. With A28G U60G, the self-cleavage came out at 0.97. Next, A30G U63C: 0.185. With A30G U63G the figure was 0.101; with A30G U63A, 0.0503; with G29A A43C, 0.215. With A30G A39U the figure was 0.138. On to G29C A71G, for which the self-cleavage amounted to 0.206.

For the variant G29C A71C, the self-cleavage was determined as 0.179.

For A30C U52G, the self-cleavage amounted to 0.113. Next, A30G U33C: 0.0632; A30U C37A: 0.0959; A30U C37G: 0.0899.

For A30C C46U, the self-cleavage worked out at 0.367. Next, A31C A39G: 0.09; A31C A39U: 0.183; G29A C48G: 0.124.

A28G G32U: the self-cleavage was 0.0347. Next, A28G G32A: 0.236; A30G: 0.153; A30C: 0.183.

On to A30U, for which the self-cleavage was determined as 0.142.

As to G29A A30C, the self-cleavage was 0.115. Take G29A A30U: the self-cleavage worked out at 0.0939. With A28U G57U the figure was 0.235. With A30C A41U the figure was 0.364. With G29A A36G the figure was 0.135. As for A30U A45U, the self-cleavage was found to be 0.129. With A30U A45G the figure was 0.236. With G29C A30C the figure was 0.0921. As for A30G C50G, the self-cleavage came out at 0.177. Next, A30G U55G: 0.232. In the case of A30G U55A, the self-cleavage turned out to be 0.122. Regarding G29A G40C, the self-cleavage was 0.0971. Next, A30G A61G: 0.224.

In the case of G29U G56A, the self-cleavage amounted to 0.162.

For A28G G34C, the self-cleavage was 0.999.

On to A28G G34U, for which the self-cleavage turned out to be 1.65. With A28G C46G the figure was 0.134.

As for A30U A36G, the self-cleavage was 0.248. For the variant A30U A36C, the self-cleavage was found to be 0.0422. Next, A28U C65A: 0.497; A28U G29C: 0.0715; A28U G29U: 0.0995. Take A30U G34A: the self-cleavage amounted to 0.216. With A30G A41U, the self-cleavage is 0.244.

Consider G29U C48G, for which the self-cleavage was 0.096. On to A30G G69U, for which the self-cleavage came to 0.0631. As for G29U A43U, the self-cleavage was found to be 0.215. With A28U A43G the figure was 0.0987. With A28U U52C the figure was 0.768. Turning to A28U U52A, the self-cleavage turned out to be 0.423. With A30C U58C the figure was 0.158; with A28G G40U, 0.19; with A28G A41C, 0.961. Next, A28G A41G: 0.908; A30C C65G: 0.166; G29A G32C: 0.106.

For A31C A35G, the self-cleavage was determined as 0.13. Turning to A28G U33A, the self-cleavage worked out at 0.157. With G29A A44U the figure was 0.226; with A28G A44U, 0.142; with A28G G57U, 0.36.

On to A28G G57A, for which the self-cleavage turned out to be 0.19. A28U C38U: the self-cleavage was determined as 0.343.

For the variant A28U G40A, the self-cleavage stood at 0.175. Consider G29C G34A, for which the self-cleavage worked out at 0.158. For G29C G34U, the self-cleavage is 0.0954. With A28U U58G the figure was 0.416; with G29C G51U, 0.141. Next, A30U U52A: 0.158; A30U C66U: 0.083; A30G U62C: 0.13.

Consider A28G A49C, for which the self-cleavage came to 0.208. Regarding G29C C38A, the self-cleavage was found to be 0.174. With G29U U60C the figure was 0.107; with A31C, 0.131; with A30G G51U, 0.157. Turning to A30C A45C, the self-cleavage came to 0.126. Next, G29A C37G: 0.103; G29A C37A: 0.107; G29A C37U: 0.134. Next, A30C A39G: 0.1. With A28U A35G, the self-cleavage stood at 0.599. Consider A28U A35C, for which the self-cleavage was determined as 0.704. With A30G G54A the figure was 0.102. With G29A U33G the figure was 0.167; with A28U A61U, 0.12; with A28U A61C, 0.18. With A30C C50G the figure was 0.142.

As for A28C U62C, the self-cleavage is 0.203. On to A28C U62G, for which the self-cleavage came out at 0.18. Regarding A30C C66G, the self-cleavage was determined as 0.248. With A28G A64G the figure was 0.425; with A28U A39G, 0.143; with A28U A39U, 0.222. With G29U C37A the figure was 0.163. With A28G A36U the figure was 0.7; with G29U A39C, 0.174; with G29U A45C, 0.0757.

Regarding G29U A45U, the self-cleavage is 0.101. Next, G29A A45G: 0.105; G29U U58C: 0.18. With G29C U67C the figure was 0.0789; with A30U A35U, 0.196; with A30U A35C, 0.0881. With A28U A49C the figure was 0.18.

As to A30G A43U, the self-cleavage turned out to be 0.221. With G29C G40C the figure was 0.133.

With G29C G40A, the self-cleavage is 0.115. A28U C37U: the self-cleavage amounted to 0.376. With A28U C37G the figure was 0.193; with A30G C65U, 0.125; with A28G A61G, 0.279. As for A30G U58G, the self-cleavage is 0.19. With A30G U58A the figure was 0.0366; with A28G A47C, 0.42; with A28G A47U, 0.192.

In the case of A30C G57C, the self-cleavage is 0.0882. For the variant A30C G57A, the self-cleavage amounted to 0.158.

Consider G29C A39G, for which the self-cleavage worked out at 0.0911. With G29C A39C the figure was 0.106.

(Values after the RNAGym collection of RNA variant scans (doi:10.7554/elife.80360).)
